From the supplement of paper PMC9170038

System: MS2 coat protein
Assay: apparent KD of MS2 coat protein; designed switch direction (-1 OFF switch, 1 ON switch): -1; higher = weaker reporter binding
How it was run: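 An oligonucleotide input, 200 uM small-molecule ligand, or no input was present during titration of SNAP-549-labelled MS2 coat protein, which was doubled from 0.7 or 1.5 nM to 3 µM. Designed RNA switches had been transcribed on Illumina chips by stalled E. coli RNA polymerase. Apparent KD per design is the median over clusters of curves fitted to normalised cluster fluorescence.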

[1] = Eterna round: R95, input ligand: FMN 200 uM
[2] = Eterna round: R95, input ligand: microRNA oligo, concentration not stated
[3] = Eterna round: R95, input ligand: none
[4] = input ligand: microRNA oligo, concentration not stated

| Sequence | apparent KD of MS2 coat protein (input ligand: FMN 200 uM) | apparent KD of MS2 coat protein (input ligand: none) | apparent KD of MS2 coat protein [1] | apparent KD of MS2 coat protein [2] | apparent KD of MS2 coat protein [3] | apparent KD of MS2 coat protein [4] |
| --- | --- | --- | --- | --- | --- | --- |
| UAAACCAGAGGAUAUGCGAAUAAAUAAAACUUUUUUUUUUAACAUGAGGAUCACCCAUGUAGAAGGCUGCAAAU [Ex2 #33] (Eterna round: R97, puzzle: Exclusion 2) | 30 nM | 38.9 nM |  |  |  |  |
| UAAAGAGCAGGAUAUCUAAUGUAUCACAUGAGGAUCACCCAUGUCCAGCGAAAGCUGGAGGGAGAAGGGCUCUAAU [Mat - Exclusion 5 - Eli mod - D103] (puzzle: Exclusion 5) |  |  | 178 nM | 182 nM | 130 nM |  |
| UAAAGGCUAGGAUAUCGCACCUUCGACAUGAGGAUCACCCAUGUAUGUCGAUGGUAAAAUCGAGAAGGAGCGAGAA [Artiedqu] (puzzle: Exclusion 5) |  |  | 31.7 nM | 21.7 nM | 17.8 nM |  |
| UAAAGUAUAUAGGAUAUCUAGCUGGUAACAGCUAGAGAAGGAUGUACAUGAGGAUCACCCAUGUAAAUCGUGAA [Ex6/13-A2] (Eterna round: R97, puzzle: Exclusion 6) | 20.5 nM | 16.9 nM |  |  |  |  |
| UAAAUCGCAGGAUAUCCAGAGGAGGACAUGAGGAUCACCCAUGUGGAAAGGAAAGGAGGAGGAGAAGGGCGAUUUA [Paired] (Eterna round: R97, puzzle: Exclusion 5) | 84.4 nM | 72.5 nM |  |  |  |  |
| UAAAUGCUGCGAGGAUAUACAUGAGGAUCACCCAUGUGGAUGUCUGAGGCUUUGCCUCAGACGAUGUAGAAGGCGCAGUAAAAU [Mat - Exclusion NG 2 - Mod of JL - D52] (Eterna round: R96, puzzle: Exclusion NG 2) | 134 nM | 22.5 nM |  |  |  | 15.7 nM |
| UAAAUGUGAGGAUAUCAGGUGUGCUAGAAUACUGGUACAUCUGAGAAGGCACAUGAGGAUCACCCAUGUUCCUU [Mat - Exclusion 4 - Mod of JL - D53] (puzzle: Exclusion 4) |  |  |  | 15.8 nM |  |  |
| UAACAACAUGAGGAUCACCCAUGUGAGGAUAUGUACGUUCGUUGGCGAACCUUGUUCCGCAGAAGGCAUGUGGG [Eternabot (L1) Solution 28] (Eterna round: R97, puzzle: Exclusion 1) | 232 nM | 38.6 nM |  |  |  |  |
| UAACAAGCUUAAAGAUCCUACAUGAGGAUCACCCAUGUGCUCGUCUUAUAACGUACUGUGACGAAAGUCACGGUACG [JL TOV1 3.14] (Eterna round: R97, puzzle: Sensor, turn-off variant 1) | 348 nM | 395 nM |  |  |  |  |
| UAACAAGCUUAAAGAUCCUACAUGAGGAUCACCCAUGUGCUCGUCUUGUAACGUACUGUGACGAAAGUCACGGUACG [JL TOV1 3.15] (Eterna round: R97, puzzle: Sensor, turn-off variant 1) | 521 nM | 314 nM |  |  |  |  |
| UAACAGCAAGGAUAUACGGGCUGUGCUUUUCAUUUCUUACAACAUGAGGAUCACCCAUGUAGAAGGUGCAACAA [Ex2 #6] (Eterna round: R97, puzzle: Exclusion 2) | 54.4 nM | 24.8 nM |  |  |  |  |
| UAACAUCUGAUUCUUGAGAUACAUGAGGAUCACCCAUGUUCACAGGAUAUUGAUUUUAAGAAAAGCAAGAAGGGUGAAUCAUUU [JR_ExcNG3_Sub042] (Eterna round: R96, puzzle: Exclusion NG 3) | 34.1 nM | 20.7 nM |  |  |  | 19 nM |
| UAACAUGUACAAGGAUAUCAGCACGAUUAGUGCUGAGAAGGUGUAACAUGAGGAUCACCCAUGUAGAUCAUUAAUUAAUUAAUU [ENG1/9-B1] (Eterna round: R96, puzzle: Exclusion NG 1) | 319 nM | 56.6 nM |  |  |  | 60.9 nM |
| UAACAUGUCUGAGGAUAUCUGCACGUGUAGUGCAGAGAAGGCAGAACAUGAGGAUCACCCAUGUAGAUCAUUAAUUAAUUAAUU [ENG1/7-B3] (Eterna round: R96, puzzle: Exclusion NG 1) | 765 nM | 478 nM |  |  |  | 337 nM |
| UAACAUGUCUGAGGAUAUCUGCACGUUUAGUGCAGAGAAGGCAGAACAUGAGGAUCACCCAUGUAGAUCAUUAAUUAAUUAAUU [ENG1/7-B2] (Eterna round: R96, puzzle: Exclusion NG 1) | 195 nM | 194 nM |  |  |  | 142 nM |
| UAACCUCGCGUCAGGAUAUGCGAGGACUGUGACGUGCAGAAGGGACAUGAGGAUCACCCAUGUGAAAGAAUUAA [Acecequ] (puzzle: Brourd's mod of Exclusion 4) |  |  |  | 20.3 nM |  |  |
| UAACUACAUGAGGAUCACCCAUGUCAGGAUAUGCCGUUAAAUUAACAUCAACAUACGGGUAGAAGGGACAGCGU [1st #4] (Eterna round: R97, puzzle: Exclusion 1) | 30 nM | 29.2 nM |  |  |  |  |
| UAAGAAUGCAAGGAUAUGGCUAGGUAAAACAUGUCAGAAGGUGCUACAUGAGGAUCACCCAUGUGUCUCGUGCG [Eternabot (L1) Solution 2] (Eterna round: R97, puzzle: Exclusion 6) | 75.8 nM | 64.3 nM |  |  |  |  |
| UAAGAGUGAGGAUAUACGUCGCUGGUCCAGAUGGACGCAUGACAUGAGGAUCACCCAUGUAGAAGGCACAAAAC [Enxela Mod 3 - Jieux - Exclusion 2] (Eterna round: R97, puzzle: Exclusion 2) | 189 nM | 32.8 nM |  |  |  |  |
| UAAGUUCAGUAGGAUAUUCAGCAGCUGCUGCUAGGAGAAGGGCUGACAUGAGGAUCACCCAUGUGAGUGUCCGU [Eternabot (L2) Solution 55] (Eterna round: R97, puzzle: Exclusion 6) | 92.2 nM | 32.1 nM |  |  |  |  |
| UAAUAAAGUGUGAGGAUAUGCUGGUCCUUGGAUCAGCAGAAGGCACAUGAGGAUCACCCAUGUAAUAUAUAAAU [Mat - Exclusion 4 - JL Mod - D55] (puzzle: Brourd's mod of Exclusion 4) |  |  |  | 70.4 nM |  |  |
| UAAUAAAGUGUGAGGAUAUGCUGGUCCUUGGAUCAGCAGAAGGCACAUGAGGAUCACCCAUGUAAUAUAUAUAU [Mat - Exclusion 4 - JL Mod - D54] (puzzle: Brourd's mod of Exclusion 4) |  |  |  | 62.4 nM |  |  |
| UAAUAACAAGCAGGAUCCUACAUGAGGAUCACCCAUGUGCUCGUCUUAUAAAGUACUAUCACGAAAGUGAUAGUACU [Mat - Sensor v3 - turn-off var 1 - Eli Mod - D73] (puzzle: Sensor v3, turn-off variant 1) |  |  | 208 nM | 71.9 nM | 250 nM |  |
| UAAUACAUCUAUGGGAGUAACAUGAGGAUCACCCAUGUAUGUCUUGUUUUUUGUUCGUCAUAGACUUUCUGAUCAGU [JR_SV3TOV1_Sub029] (puzzle: Sensor v3, turn-off variant 1) |  |  | 47.9 nM | 175 nM | 52.2 nM |  |
| UAAUGUGCGAGAGGAUAUCGUGUACAAAGUACACGAGAAGGCUUCACAUGAGGAUCACCCAUGUACCGAGGUGAAACACCUUGG [Omei Exc(NG)1 Bv1] (Eterna round: R96, puzzle: Exclusion NG 1) | 355 nM | 220 nM |  |  |  | 171 nM |
| UAAUUAAAUGUAAGGAUAUGGCAAUGCGGUGGCAGUUAGAAGGUACAUGAGGAUCACCCAUGUGUGUAUCGUGA [Eternabot (L1) Solution 93] (Eterna round: R97, puzzle: Brourd's mod of Exclusion 4) | 233 nM | 248 nM |  |  |  |  |
| UAAUUAAAUGUAGGAUAUCUGCACGAUUAGUGCAGAGAAGGACAUGAGGAUCACCCAUGUAGAUCAAAUUAAAUUAAUUUAAUU [ENG1/5-D1] (Eterna round: R96, puzzle: Exclusion NG 1) | 92.2 nM | 33.8 nM |  |  |  | 24.5 nM |
| UAAUUAAGUGUGAGGAUAUGCUGGUCCUUGGAUCAGCAGAAGGCACAUGAGGAUCACCCAUGUAAAUUAUUUAU [Mat - Exclusion 4 - JL Mod - D60] (Eterna round: R96, puzzle: Brourd's mod of Exclusion 4) | 332 nM | 76.5 nM |  |  |  | 54 nM |
| UAAUUAAGUGUGAGGAUAUGCUGGUCCUUGGAUCAGCAGAAGGCACAUGAGGAUCACCCAUGUAAAUUAUUUAU [Mat - Exclusion 4 - JL Mod - D60] (puzzle: Brourd's mod of Exclusion 4) |  |  |  | 73.2 nM |  |  |
| UAAUUAAUUAAUUAAUAAUACAUGAGGAUCACCCAUGUAGAUCCUACAUACAAGCUUUGUAGCUCGUCUUAUAAUUA [Stov1/3-A1] (Eterna round: R97, puzzle: Sensor, turn-off variant 1) | 214 nM | 337 nM |  |  |  |  |
